Test results reported in patent US20240166738A1 (Alector, published 2024).
Residue numbers refer to the chain shown, from its start.

B1: TM-31 (antibody, V domains shown)
VH: QVQLQQSGAELAKPGASVKVSCKASGYTFISYWMNWVKQRPGQGLEWIGYINPTSGYTRYNQKFKDKATLTADKSSSTAYMQLSSLTYEDSAVYYCARSPPTVVLIGYFDYWGQGTTLTVSS
VL: DIKMTQSPSSMYASLGERVTFTCKASQDINSYLSWFQQKPGKSPKTLIYRGNGLVDGVPSRFSGSGSGQDYSLTISSLEYEDMGIYYCLQYDEFPFTFASGTKLEIK
notes: mouse hybridoma mAb
B2: TM-44 (antibody, V domains shown)
VH: EVQLVESGGGLVKPGGSLKLSCAASGFTFSDYGMHWVRQAPEKGLEWVAYISSGSSTIYYADTVKGRFTISRDNAKNTLFLQMTSLRSEDTAMYYCARNYGSPYAMDYWGQGTSVTVSS
VL: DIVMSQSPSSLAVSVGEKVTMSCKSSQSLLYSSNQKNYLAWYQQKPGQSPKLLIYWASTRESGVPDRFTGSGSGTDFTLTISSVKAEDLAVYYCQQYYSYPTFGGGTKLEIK
B3: TM-4 (antibody, V domains shown)
VH: EVQVQQSGPVLVKPGASVKMSCKASGYTFTDYYMNWVKQSHGKNLEWIGVINPYNGGTSYHQKFKGKATLTVDKSSSTAYMELNSLTSEDSAVYYCARAATVVAGFDYWGQGTTLTVSS
VL: QAVVTQESALTTSPGETVTLTCRSSTGAVTTSNYANWVQEKPDHLFTGLIGGTNNRAPGVPARFSGSLIGDKAALTITGAQTEDEAIYFCVLWYSNHLVFGGGTKLTVL
B4: TM-83 (antibody, V domains shown)
VH: QVQLQQPGTELVKPGALVKLSCKASGYTFTTYWIHWVKQRPGQGLEWIGNINPSNGNTKNNERFKTKATLTVDKSSSTAYMQLSSLTSEDSAVYYCVRGDYYGTSYPFWGQGTLVTVSS
VL: DVVMTQTPLSLPVSLGDQASISCRSSQSLVHSNGITYLHWYLQKPGQSPKLLIYKVSNRFSGVPDRFSGSGSGTDFTLKISRVEAEDLGVYFCSQSTHVPYTFGGGTKLEIK
B5: TM-12 (antibody, V domains shown)
VH: EVQLQQSGAELMRPGASVKLSCTASGFNIQDYYMYWVKQRPEQGLEWIGRIDPEDGDAEYAPKFQGKATMTADTSSNTAYLQLSSLTSEDTAVYYCSTRVIYDGYYRTMDCWGQGTSVTVSS
VL: DVLMTQIPLSLPVSLGDQASISCRSSQTIVHSNGNTYLEWYLKKPGQSPKLLIDKISNRFSGVPDRFSGSGSGTDFTLKISRVEAEDLGVYYCFQGSHVPYTFGGGTKLEIK
B6: TM-3 (antibody, V domains shown)
VH: QVTLKESGPGIVQPSQTLSLTCSFSGFSLNTLGRGVGWIRQPSGKGLEWLAKIWWNDDKFYYPALKSRLTISKDTSKNQIFLKIANVDTADSATYYCARIAGGTGAAYWGQGTTLTVSS
VL: DIVMTQAAFSNPVTLGTSASISCRSSKSLLHSNGITYLYWYLQKPGQSPQLLISQMSSLASGVPDRFSSGGSGTDFTLRISRVEAEDVGVFYCAQNLELPWTFGGGTKLELK
B7: TM-9 (antibody, V domains shown)
VH: EVQLVESGGDLVKPGGSLKLSCVASGFTFSGYGMSWVRQTPDKRLEWVATISSGSFYIYYPDSVKGRLTVSRDNAKNTLYLQMSSLKSEDTAIYYCARQNFYYGCEDYWGQGTTLTVSS
VL: B6 VL with S54Y, S58N, D65N, G70S, F91Y, L111I
B8: TM-17 (antibody, V domains shown)
VH: QVQLQQSGAELIRPGTSVKVSCKASGYAFTDYLIEWVKQRPGQGLEWIGVINPGSGGTNYNEKFKGKAKLTADKSSSTAYMQLSSLTSEDSAVYFCVRSSYGVYVAYPMDYWGQGTSVTVSS
VL: DIQMTQSPSSLSASLGERVSLTCRASQDIGSNLNWLQQEPDGTIKRLIYATSSLDSGVPKRFSGSRSGSDYSLTISSLESEDFVDYYCLQYASSPRTFGGGTKLEIK
B9: TM-62 (antibody, V domains shown)
VH: QVQLQQPGTELVRPGSSVKLSCKAAGYTFTRYWMHWVKQRPIQGLEWIGNIDPSDSETQYNPKFKDKATLTVDRSSSTAYMHLSSLTSEDSAVYYCARLTTLDYAMDYWGQGTSVTVSS
VL: QIVLTQSPAIMSASPGEKVTISCSASSSVSYMYWYQQKAGSSPKPWIHRTSNLASGVPARFSGSGSGTSYSLTIRSMEAEDAATYYCQQYHSYPPTFGVGTKLELK
notes: mouse hybridoma mAb
B10: TM-49 (antibody, V domains shown)
VH: B9 VH with T9A, A25S, Y32F, E57Q, Q59H, P62Q, R74K, H82Q, T100I, L102V
VL: B9 VL with A39P, A59V, R75S, V99A
notes: mouse hybridoma mAb
B11: TM-70 (antibody, V domains shown)
VH: EVQLVESGGALVKPGGSLKLSCAASGFTFSNYAMSWVRQTPEKRLEWVATIGYGGSYSYYPDSVKGRFTISRDNAKYTLYLQMSGLRSEDTALYYCARQDSNYEGVWFAYWGQGTLVT
VL: not shown
B12: TM-50 (antibody, V domains shown)
VH: QVQLKESGPVLVAPSQSLSITCTVSGFSLTNYGVHWVRQPPGKGLEWLGVIWAGGNTNYNSALMSRLSISKDNSKSQVFLKMNSLQTDDTAMYYCAKEAKLLRSYAMDYWGQGTLVTVSA
VL: DVQMTQTTSSLSASLGDRVTISCRASQDINNYLYWYQQKPDGTVKLLIYYTSMLHSGVPSRFSGSGSGTDYSLTISNLEQEDIATYFCQQGSTLMYTFGGGTKLEIK
B13: TM-47 (antibody, V domains shown)
VH: B12 VH with L115S, A120S
VL: DIVMTQSPSSLTVTAGEKVTMSCKSSQSLLNSGNQKNYLTWYQQKPGQPPKLLIYWASTRESGVPDRFTGSGSGTDFTLTISSVQAEDLAVYYCQNDYSYPLTFGAGTKLEIK
B14: TM-41 (antibody, V domains shown)
VH: EVQLQQSGAELVKPGASIKLSCTASGFNIKDCYMHWVKQRTEQGLEWIGRIDPEDGTTNFAPKFQDRATITADTSSNTAYLQLTSLTSEDTAVYYCAREWDSGAYWGQGTLVTVSA
VL: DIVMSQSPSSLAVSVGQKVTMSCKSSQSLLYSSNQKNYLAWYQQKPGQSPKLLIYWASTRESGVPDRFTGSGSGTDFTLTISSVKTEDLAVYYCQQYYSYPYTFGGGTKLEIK
B15: TM-74 (antibody, V domains shown)
VH: EVQLQQSGPELVKPGASVKMSCKASGYTFTSYVIHWVKQKPGQGLEWIGFINPNNDGTKYNEKFRGKATLTSDKSSSTAYMELSSLTSEDSAVYYCARPYYDYEGYTMDYGGQGTSVTVSS
VL: DVVMTQSQKFMSTSVEDRVSITCKASQNVRSAVAWYQQKPGQSPKALIYLASNRHTGVPDRFAGSGSGTDFTLTISSVQSEDLADYFCLQHWKYPFTFGSGTKLEIK
B16: TM-56 (antibody, V domains shown)
VH: QVHLQQSGAELAKPGASVKLSCKASGYTFTSYWMHWVKQRPGQGLEWIGYINPSSGYSKYNQRFKDKATLTADKSSTTAYMHLSSLTYADSAVYYCTREGGSISDWYFDVWGTGTTVTVSS
VL: DIEMTQAAPSVPVTPGESVSISCRSSKSLLQNNGNTYLYWFLQRPGQPPQLLIYRMSNLASGVPDRFSGSGSGTAFTLRISRVEAEDVGVYYCMQHLEYPYTFGGGTKLEIK
notes: mouse hybridoma mAb
B17: TM-39 (antibody, V domains shown)
VH: HVQRQQSGTELAKPGASVKLSCKTSGYTFTDYWMHWIKQRPGQGLEWIGFINPSSGYTKYNQNFKDKATLTADKSSSTAYMQLSSLTYEDSAVFYCAREAGSISDWYFDVWGTGTTVTVSS
VL: B16 VL with E3V, V11I, S28T, Q31N, N32S, E98D, K108Q
B18: TM-23 (antibody, V domains shown)
VH: QVQLQQSGAELIRPGTSVKVSCKASGYAFTNYLIEWVKKRPGQGLEWIGVINPGSGITNYNEKFKGKATLTADKSSSTAYMQLSSLTSEDSAVYFCARSDFITTVVADYWGQGTTVTVSS
VL: DIVVTQTPLSLPVSFGDQVSISCRSSQSLTNYYGNTYLSWYLHKPGQSPQLLIYGISNRFSGVPDRFSGSGSGTDFTLKISTIKPEDLGMYYCLQGTHQPRTFGGGTKLEIK
B19: TM-82 (antibody, V domains shown)
VH: B18 VH with I12V, K19R, V37I, K39Q, N59D, N61S, T69R, E89D, A97T, D100P
VL: B18 VL with I2V, T30A, Y32T, K44T, Y54F, M90V, Q99P, I111M
B20: TM-66 (antibody, V domains shown)
VH: EVMLVESGGALVEPGGSLKLSCAASGITFSNYAMSWIRQTPEKRLEWVATIGSVGSYTYYPDSVKGRFTISRDNARNTLYLQMSSLRSEDTAMYYCARQEGSSHFDYWGQGTTLTVSS
VL: DVVVTQTPPSLPVSFGDQVSISCRSSQSLVNSYGKTFLSWYLHKPGQSPQLLIYGISNRFSGVPDRFSGSGSGTVFTLKISTIKPEDLGMYYCLQGTHPPLTFGAGTKLEMK
notes: mouse hybridoma mAb
B21: TM-34 (antibody, V domains shown)
VH: EVQLVESGGGLVKPGGSLKLSCAASGFSFSDSGMDWVRQAPEKGLEWFAYISSGSSTTHYADTVKGRFIISRDNAKNTLFLQMTSLRSEDTAMYYCVRRDGNYWYFDVWGTGTTVTVSS
VL: QIVLSQSPVILSASPGEKVTMTCRATSSVTYMHWYQLKPGSSPKPWIYATSNLASGVPARFSGSGSGTSYSLTISRVEAEDAATYYCQQWSSNPYTFGGGTKLEIK
B22: TM-68 (antibody, V domains shown)
VH: EVQLQQSGAELVRPGASVKLSCTASGFNIKDDYMHWVRQRPEQGLEWIGWIDPENGDTEYASKFQGKATMTADTSSNTAYLHLSSLTSEDTAVYYCTKPQTATTCWGQGTLVTVSS
VL: DIVMTQAAFSNPVTLGTSVSISCSSSKSLLHSSGITYLYWYLQRPGQSPQLLIYRMSNLASGVPDRFSGSGSGTDFTLRISRVEAEDVGVYYCAQMLERPWTFGGGTKLEIK

Biological target: human TMEM106B (human, UniProt Q9NUM4 2-274); note: test concentration or dose not given here
Test: cell-based or functional assay

Row | Binder | % Protection from CPE
1 | B1 | 7.7%
2 | B2 | 3.2%
3 | B3 | 3.7%
4 | B4 | 4.3%
5 | B5 | 95.9%
6 | B6 | 97.2%
7 | B7 | 96.4%
8 | B8 | 3.7%
9 | B9 | 84.2%
10 | B10 | 49.6%
11 | B11 | 3.4%
12 | B12 | 3.9%
13 | B13 | 3.8%
14 | B14 | 3.5%
15 | B15 | 3.7%
16 | B16 | 89.7%
17 | B17 | 4.2%
18 | B18 | 3.7%
19 | B19 | 3.2%
20 | B20 | 5.9%
21 | B21 | 4.1%
22 | B22 | 3.5%

Biological target: T1, GST-TMEM106B (truncated, comprising amino acids 122-210 of SEQ ID NO:1) (human, UniProt Q9NUM4 122-210)
T1 construct: GST written first by the name only; also called truncated GST-TMEM106B fusion protein; GST-TMEM106B polypeptide fusion; not shown: GST fusion partner
Test: pre-mix epitope binning, antibody immobilized on chip array

Row | Binder | binding result
23 | B1 | no binding (tested: 55 nM antigen (2 ug/mL))
24 | B9 | no binding (tested: 55 nM antigen (2 ug/mL))
25 | B10 | no binding (tested: 55 nM antigen (2 ug/mL))
26 | B16 | no binding (tested: 55 nM antigen (2 ug/mL))
27 | B20 | no binding (tested: 55 nM antigen (2 ug/mL))
